What is called Kd is a measure of binding affinity in units of concentration. A high value points to weaker binding. One may read the stoichiometry N as a count of units in the complex or per binding partner.

Common to all, as to experiment: ITC
One assay addresses H3(20-35)K27me3 peptide.
The target in the next assay is H3(1-15)K4me3 peptide.
Assay [1] addresses H3(1-35)K4me3K27me3 doubly methylated peptide.

As for “EARLY BOLTING IN SHORT DAY (EBS), full length (from UniProt F4JL28 1-234) (natural protein)”, the Kd was 49.8 µM with H3(20-35)K27me3 peptide and 86.8 µM with H3(1-15)K4me3 peptide.
With “EBS without the C-terminal autoinhibition loop (EBSΔC, 1-199) (from UniProt F4JL28 1-199) (domain or fragment)”, in the assay with H3(1-15)K4me3 peptide, the Kd is 30.7 µM. Also, the stoichiometry N in assay [1] was 1.

The values above are taken from PMC6556434.
